Experimental data reported in patent US20160102316A1, “STRESS TOLERANT PLANTS” (CONSEJO SUPERIOR DE INVESTIGACIONES CIENTIFICAS(CSIC), priority 2013, published 2016).

B1: full length PYL8 (receptor, Arabidopsis, UniProt Q9FGM1 1-188, looked up)
chain: MEANGIENLTNPNQEREFIRRHHKHELVDNQCSSTLVKHINAPVHIVWSLVRRFDQPQKYKPFISRCVVKGNMEIGTVREVDVKSGLPATRSTERLELLDDNEHILSIRIVGGDHRLKNYSSIISLHPETIEGRIGTLVIESFVVDVPEGNTKDETCYFVEALIKCNLKSLADISERLAVQDTTESRV
notes: Gal4-domain fusion in the yeast two-hybrid assays; also called ABA receptor PYL8
B2: PYL5 (receptor, Arabidopsis, UniProt Q9FLB1 1-203, looked up)
chain: MRSPVQLQHGSDATNGFHTLQPHDQTDGPIKRVCLTRGMHVPEHVAMHHTHDVGPDQCCSSVVQMIHAPPESVWALVRRFDNPKVYKNFIRQCRIVQGDGLHVGDLREVMVVSGLPAVSSTERLEILDEERHVISFSVVGGDHRLKNYRSVTTLHASDDEGTVVVESYIVDVPPGNTEEETLSFVDTIVRCNLQSLARSTNRQ
B3: DDA1 fused to the binding domain of GAL4 (pGBKT7-DDA1) (other)
chain: MKLLSSIEQACDICRLKKLKCSKEKPKCAKCLKNNWECRYSPKTKRSPLTRAHLTEVESRLERLEQLFLLIFPREDLDMILKMDSLQDIKALLTGLFVQDNVNKDAVTDRLASVETDMPLTLRQHRISATSSSEESSNKGQRQLTVSMASILGDLPSFDPHNFSQHRPSDPSNPSKMVPTTYRPTHNRTLPPPDQVITTEVKNILIRSFYQRAEEKLRPKRPATDHLAAEHVNKHFRAASSSSSTQGL
notes: Other vector-encoded residues of pGBKT7 are not described; also called AtDDA1; DET1-, DDB1-Associated 1
B4: COP10 (other, Arabidopsis, UniProt Q9LJD7 1-182, looked up)
chain: MMTPGGSGRLRPLPTAMYAGYSGTASSWVAKTSVSASGKRIQREMAELNIDPPPDCSAGPKGDNLYHWIATIIGPSGTPYEGGIFFLDIIFPSDYPFKPPKLVFKTRIYHCNVDTAGDLSVNILRDSWSPALTITKVLQAIRSIFLKPEPYSPALPVIARLYLTDREKHDEVAKEWTLRFAK
notes: Endogenous protein in the TAP; also called CONSTITUTIVE PHOTOMORPHOGENIC10
B5: PYL6 (receptor, Arabidopsis, UniProt Q8S8E3 1-215, looked up)
chain: MPTSIQFQRSSTAAEAANATVRNYPHHHQKQVQKVSLTRGMADVPEHVELSHTHVVGPSQCFSVVVQDVEAPVSTVWSILSRFEHPQAYKHFVKSCHVVIGDGREVGSVREVRVVSGLPAAFSLERLEIMDDDRHVISFSVVGGDHRLMNYKSVTTVHESEEDSDGKKRTRVVESYVVDVPAGNDKEETCSFADTIVRCNLQSLAKLAENTSKFS
B6: DDA1:YFPC (other)
chain: MASILGDLPSFDPHNFSQHRPSDPSNPSKMVPTTYRPTHNRTLPPPDQVITTEVKNILIRSFYQRAEEKLRPKRPATDHLAAEHVNKHFRAASSSSSTQGL
notes: BiFC construct expressed transiently in N. benthamiana leaves; also called DDA1 fusion with the C-portion of YFP; not shown: C-portion of the yellow fluorescent protein (YFP)

Legend:
DET1 [1] = biological target: T1, DET1 (Arabidopsis, UniProt P48732 1-543); assay: yeast two-hybrid (FIG. 4B)
T1 construct: Endogenous protein in the TAP; also called DEETIOLATED 1
T1 sequence (looked up): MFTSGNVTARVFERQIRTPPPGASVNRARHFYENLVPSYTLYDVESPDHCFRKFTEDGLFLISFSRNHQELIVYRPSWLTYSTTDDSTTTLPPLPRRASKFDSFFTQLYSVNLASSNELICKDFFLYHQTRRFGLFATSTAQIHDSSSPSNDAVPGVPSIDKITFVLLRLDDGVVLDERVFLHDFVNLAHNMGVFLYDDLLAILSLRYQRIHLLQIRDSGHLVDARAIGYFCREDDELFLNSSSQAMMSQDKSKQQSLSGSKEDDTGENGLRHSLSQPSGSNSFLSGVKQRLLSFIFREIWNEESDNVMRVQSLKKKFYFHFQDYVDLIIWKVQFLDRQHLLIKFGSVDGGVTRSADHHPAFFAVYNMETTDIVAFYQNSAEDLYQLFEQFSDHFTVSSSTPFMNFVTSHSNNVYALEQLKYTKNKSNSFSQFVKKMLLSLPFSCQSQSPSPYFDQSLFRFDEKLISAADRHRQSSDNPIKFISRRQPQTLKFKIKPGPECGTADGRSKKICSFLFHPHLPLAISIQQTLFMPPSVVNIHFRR
Procedure: (§1) (A) Y187 yeast cells transformed with pGBKT7-DDA1 were used to screen a cDNA library prepared from Arabidopsis seedlings in the pGADT7 vector and transformed into AH109 cells. Positive clones included truncated versions of ABA receptors PYL4 and PYL9. Yeast clones were grown in selective media containing different concentrations of 3AT (ranging 0.5 to 5 […]). Empty pGADT7 vector was used as negative control. (B-C) DDA1 interaction with full length PYL8 (B), PYL4, PYL5, PYL6 or PYL9 (C) was assessed using yeast two hybrid experiments as in (A). Physical association between PYL8 and other components of the CDD complex (DDB1a, DDB1b, DET1 and COP10) was also tested (B).
(§2) The full length DDA1 cDNA was cloned into the pGBKT7 (Gal4 DNA binding domain, BD; Clontech). […] To confirm protein interactions, plasmids were co-transformed into Saccharomyces cerevisiae AH109 cells, following standard heat-shock protocols (Chini et al., 2007). Successfully transformed colonies were identified on yeast synthetic drop-out lacking Leu and Trp; these colonies were resuspended in water and transferred to selective media lacking Ade, His, Leu and Trp. Plates without His were supplemented with different concentrations of 3-amino 1,2,4-triazole (3AT; ranging 0.5-10 mM). Yeast cells were incubated at 30° C. during 6 days. Empty vectors were co-transformed as negative controls. To test the DDA1 interaction with specific DDB1a domains, DDB1a truncated versions were generated and cloned into the pGADT7 vector as follows: BPA (aa 16-350), BPB (aa 387-704), BPA+BPB (aa 16-704), BPC (aa 704-1002) and BPB+BPC (aa 350-1002). Full length DDB1a was used as a positive control.

DDB1b = biological target: T2, DDB1b (Arabidopsis, UniProt O49552 1-1088); assay: yeast two-hybrid (FIG. 4B)
T2 construct: Endogenous protein in the TAP; also called DDB1 proteins
T2 sequence (looked up): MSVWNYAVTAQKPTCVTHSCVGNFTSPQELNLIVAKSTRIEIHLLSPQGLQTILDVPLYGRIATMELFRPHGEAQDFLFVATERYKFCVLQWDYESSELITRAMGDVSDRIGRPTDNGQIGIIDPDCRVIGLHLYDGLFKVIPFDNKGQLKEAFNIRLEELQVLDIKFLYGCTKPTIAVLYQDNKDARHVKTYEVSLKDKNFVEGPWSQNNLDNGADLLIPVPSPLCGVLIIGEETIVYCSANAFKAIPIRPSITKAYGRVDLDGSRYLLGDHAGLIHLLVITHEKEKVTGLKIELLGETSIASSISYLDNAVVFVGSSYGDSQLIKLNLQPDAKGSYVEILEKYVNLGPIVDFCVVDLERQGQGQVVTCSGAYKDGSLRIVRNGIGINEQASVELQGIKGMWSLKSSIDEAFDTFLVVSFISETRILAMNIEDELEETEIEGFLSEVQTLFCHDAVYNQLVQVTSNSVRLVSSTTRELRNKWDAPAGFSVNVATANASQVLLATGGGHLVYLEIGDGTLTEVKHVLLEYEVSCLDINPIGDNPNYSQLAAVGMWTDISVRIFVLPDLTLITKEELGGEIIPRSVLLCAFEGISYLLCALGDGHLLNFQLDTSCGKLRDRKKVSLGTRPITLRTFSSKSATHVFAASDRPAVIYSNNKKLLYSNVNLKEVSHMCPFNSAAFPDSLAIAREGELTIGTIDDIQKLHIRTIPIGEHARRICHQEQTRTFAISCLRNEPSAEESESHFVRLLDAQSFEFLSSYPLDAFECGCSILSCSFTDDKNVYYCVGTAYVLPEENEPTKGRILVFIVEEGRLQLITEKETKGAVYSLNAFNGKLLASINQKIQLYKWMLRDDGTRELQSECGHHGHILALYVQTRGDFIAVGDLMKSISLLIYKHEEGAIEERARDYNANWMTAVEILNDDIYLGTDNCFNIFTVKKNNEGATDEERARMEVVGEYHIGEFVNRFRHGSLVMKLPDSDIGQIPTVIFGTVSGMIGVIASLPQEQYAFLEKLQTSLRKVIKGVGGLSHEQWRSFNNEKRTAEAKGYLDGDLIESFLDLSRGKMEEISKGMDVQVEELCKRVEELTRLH
Procedure: as §1, §2

DDB1a = biological target: T3, DDB1a (Arabidopsis, UniProt Q9M0V3 1-1088); assay: yeast two-hybrid (FIG. 4B)
T3 construct: Endogenous protein in the TAP from Arabidopsis cell cultures; also called DDB1 proteins
T3 sequence (looked up): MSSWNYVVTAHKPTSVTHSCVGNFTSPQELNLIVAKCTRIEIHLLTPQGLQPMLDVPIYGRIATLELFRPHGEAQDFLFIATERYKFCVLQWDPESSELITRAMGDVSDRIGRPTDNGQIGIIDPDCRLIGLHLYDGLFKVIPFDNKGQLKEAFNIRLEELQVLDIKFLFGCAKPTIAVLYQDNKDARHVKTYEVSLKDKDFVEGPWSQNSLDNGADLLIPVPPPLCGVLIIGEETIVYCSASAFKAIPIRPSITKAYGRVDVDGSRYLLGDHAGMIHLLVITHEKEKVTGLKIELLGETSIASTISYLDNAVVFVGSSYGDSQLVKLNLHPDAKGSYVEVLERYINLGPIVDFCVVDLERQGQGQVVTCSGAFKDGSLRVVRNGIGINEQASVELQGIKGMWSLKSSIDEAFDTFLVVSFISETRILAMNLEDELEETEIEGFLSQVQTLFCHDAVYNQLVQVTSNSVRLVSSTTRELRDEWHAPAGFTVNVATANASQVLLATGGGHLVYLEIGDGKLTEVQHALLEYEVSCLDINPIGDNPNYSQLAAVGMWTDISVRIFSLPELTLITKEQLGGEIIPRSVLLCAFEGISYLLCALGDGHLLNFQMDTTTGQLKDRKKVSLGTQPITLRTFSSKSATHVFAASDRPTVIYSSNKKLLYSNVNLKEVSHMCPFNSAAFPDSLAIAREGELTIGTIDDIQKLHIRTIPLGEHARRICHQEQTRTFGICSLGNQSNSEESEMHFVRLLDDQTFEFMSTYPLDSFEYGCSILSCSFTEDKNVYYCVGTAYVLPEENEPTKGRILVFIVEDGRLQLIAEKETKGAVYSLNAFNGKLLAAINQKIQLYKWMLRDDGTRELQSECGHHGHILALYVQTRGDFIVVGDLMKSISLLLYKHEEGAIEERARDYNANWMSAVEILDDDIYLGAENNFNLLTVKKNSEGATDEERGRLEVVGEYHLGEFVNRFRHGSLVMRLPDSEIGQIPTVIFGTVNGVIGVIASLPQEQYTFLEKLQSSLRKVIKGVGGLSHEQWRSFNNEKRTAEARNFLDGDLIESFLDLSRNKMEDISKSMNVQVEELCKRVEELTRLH
Procedure: as §1, §2

[2] = biological target: B3; assay: yeast two-hybrid
Procedure: as §1
(§3) The molecular basis of DDA1 activity is unknown. To get insights into its mechanism of action, we searched for proteins that interact with DDA1. With this aim, we conducted a yeast two-hybrid screen using DDA1 as bait. Thus, the full-length coding sequence of DDA1 fused to the binding domain of GAL4 was used to screen a cDNA library prepared from Arabidopsis seedlings. From over 15 million clones screened, 200 were identified as potential DDA1 interactors. Among them, 20 were subsequently confirmed by retransformation into yeast. […] We aimed to determine whether DDA1 interacts with full length PYL4 and PYL9 and with other Arabidopsis PYR/PYL/RCAR family members using yeast two hybrid assays.
(§4) The full length DDA1 cDNA was cloned into the pGBKT7 (Gal4 DNA binding domain, BD; Clontech). […] To confirm protein interactions, plasmids were co-transformed into Saccharomyces cerevisiae AH109 cells, following standard heat-shock protocols (Chini et al., 2007).

DET1 [3] = biological target: T1, DET1; assay: yeast two-hybrid
Procedure: as §1, §3, §4

full length PYL8 = biological target: B1; assay: yeast two-hybrid (FIG. 4B)
Procedure: as §1, §2

YFPN:PYL8 = biological target: T4, YFPN:PYL8 (Arabidopsis, UniProt Q9FGM1 1-188); assay: BiFC in N. benthamiana epidermal cells
T4 construct: BiFC construct expressed transiently in N. benthamiana leaves; also called PYL8 fusion with the N-portion of YFP; not shown: N-portion of the yellow fluorescent protein (YFP)
T4 sequence (looked up): B1 chain
Procedure: To confirm that DDA1 and PYL8 interact in planta, we performed bimolecular fluorescence complementation (BiFC) assays. N. benthamiana leaves were coinfiltrated with Agrobacterium tumefaciens cells to express DDA1 and PYL8 fusions with the Nor C-portions of the yellow fluorescent protein (YFP). The infiltrated leaves were analyzed under the confocal fluorescence microscope 3 d after infiltration.
YFPN:PYL8/DDA1:YFPC were co-infiltrated into the abaxial surface of 3-week-old N. benthamiana plants as described (Voinnet et al., 2003). The p19 protein was used to suppress gene silencing. The empty vectors were used as negative controls. Fluorescence was visualized in epidermal cells of leaves after 3 d of infiltration using a Leica sp5 confocal microscope. Nuclei were visualized after submerging the leaves in a DAPI solution (1 μg mL-1 DAPI in 100 mM phosphate buffer, 0.5% Triton X-100).

## B1
DET1 [1]
  binding result: no binding
DDB1b
  binding result: no binding
DDB1a
  binding result: no binding

## B2
[2]
  binding result: no binding

## B3
DET1 [3]
  binding result: no binding

## B4
[2]
  binding result: no binding
Full length PYL8
  binding result: no binding

## B5
[2]
  binding result: no binding

## B6
YFPN:PYL8
  binding result: binds
